Each sequence was assayed against Hck (UniProt P08631) (assay: phosphorylation enrichment, bacterial display (enrichment ratio); higher = better substrate or ligand; peptides without Tyr show the background).
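Further: 11-residue human phosphosite peptides and single-mutation variants displayed on the E. coli surface, counted by deep sequencing, each peptide's frequency after selection divided by its frequency in the unselected input library; frequency after pTyr selection over input frequency; kinase dosed for 20-30% of maximal phosphorylation in three min.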

Hck, sequence (P08631 whole entry, looked up): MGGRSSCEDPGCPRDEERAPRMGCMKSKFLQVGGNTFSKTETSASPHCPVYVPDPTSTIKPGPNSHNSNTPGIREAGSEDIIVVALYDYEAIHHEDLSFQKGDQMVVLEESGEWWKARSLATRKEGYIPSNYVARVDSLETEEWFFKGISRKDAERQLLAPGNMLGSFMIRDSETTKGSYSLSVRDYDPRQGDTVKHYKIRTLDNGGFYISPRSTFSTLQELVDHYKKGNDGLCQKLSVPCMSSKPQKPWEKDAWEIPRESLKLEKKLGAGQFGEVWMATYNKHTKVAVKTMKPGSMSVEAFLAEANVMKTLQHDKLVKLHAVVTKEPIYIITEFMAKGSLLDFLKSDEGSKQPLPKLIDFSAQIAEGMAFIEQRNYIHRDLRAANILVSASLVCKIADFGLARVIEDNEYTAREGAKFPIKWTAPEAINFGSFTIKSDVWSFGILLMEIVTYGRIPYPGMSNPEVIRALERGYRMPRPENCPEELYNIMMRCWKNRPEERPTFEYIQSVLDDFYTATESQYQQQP

Row | Sequence | phosphorylation enrichment
1 | ITNLLYHVVGW [GBA_Y412] | 5.96
2 | APTSGYQEFIH [IL4R_Y575_V579I] | 0.461
3 | SSAETYSRMCL [NBEAL2_Y1835_R1839C] | 0.859
4 | RLLVDYPWTQR [HBB_Y36_V35D] | 0.476
5 | VNLVLYLSIAK [FBXO15_Y496] | 0.527
6 | DNEAIYDICRR [TUBA4A_Y210] | 7.21
7 | DPADRYLTEQC [CDKL5_Y286] | 0.506
8 | FSQQTYFPVSN [ABCD1_Y180_R182P_YF] | 2.5
9 | EQMASYSGHSV [ITGA2B_Y319_F320S] | 0.488
10 | NVKGIYAVADV [GSR_Y371_G374A] | 3.79
11 | LLRLAYLADVF [ZBED5_Y476_I480V] | 0.628
12 | MDNQEYKDAFK [BRDT_Y331_YF] | 0.584
13 | SDIEEYVHRIG [DDX3X_Y525] | 0.455
14 | EQQDMYRLKVL [ABCC6_Y372_N370D] | 0.427
15 | FARNCYVAGQY [G6PD_Y107_S106C] | 0.524
16 | DIRAQYDELAQ [KRT18_Y256_R261Q] | 0.574
17 | IEKLTYIDEWF [CPS1_Y872_K875E] | 0.472

Row | Sequence | phosphorylation enrichment
18 | EFGRRYGFSRQ [CCDC93_Y209_YF] | 0.422
19 | EESSHCSTEKE [ADAR_Y587_Y587C] | 0.598
20 | DLREKYMDCGG [HAP1_Y440] | 0.55
21 | LAIEGYVVVCK [RHO_Y136_R135G] | 0.747
22 | LFSNAYLSDLA [ALDH1A1_Y119_N121S_YF] | 0.974
23 | IRTDAYVRAMT [RPE65_Y89] | 0.414
24 | KLKNAYEECLE [MYH7_Y1488_S1491C] | 0.642
25 | VYYGSYSRPYG [NKAP_Y104] | 8.09
26 | AASTDYNKRGD [PDHA1_Y242_Y243N] | 0.509
27 | RHEASYSSDSE [REPS1_Y116_A113E] | 0.954
28 | KVPAIYGVDTR [CPS1_Y162] | 0.701
29 | RLLRGYDQFAF [HLA-B_Y137_H137Y_YF] | 0.664
30 | KPSLKYVTFGN [GALNTL5_Y404_G401S_YF] | 0.488
31 | MGRVKYGAYIN [GLB1_Y485_N484K] | 0.401
32 | GKTFTYHSVFF [ZNF80_Y200_R201H] | 0.592
33 | PIQLFYTRKNT [GHR_Y86_R89K] | 1.18

These sequences were tested against Jak2 (UniProt O60674) in the same assay as above.
Jak2, sequence (O60674 whole entry, looked up): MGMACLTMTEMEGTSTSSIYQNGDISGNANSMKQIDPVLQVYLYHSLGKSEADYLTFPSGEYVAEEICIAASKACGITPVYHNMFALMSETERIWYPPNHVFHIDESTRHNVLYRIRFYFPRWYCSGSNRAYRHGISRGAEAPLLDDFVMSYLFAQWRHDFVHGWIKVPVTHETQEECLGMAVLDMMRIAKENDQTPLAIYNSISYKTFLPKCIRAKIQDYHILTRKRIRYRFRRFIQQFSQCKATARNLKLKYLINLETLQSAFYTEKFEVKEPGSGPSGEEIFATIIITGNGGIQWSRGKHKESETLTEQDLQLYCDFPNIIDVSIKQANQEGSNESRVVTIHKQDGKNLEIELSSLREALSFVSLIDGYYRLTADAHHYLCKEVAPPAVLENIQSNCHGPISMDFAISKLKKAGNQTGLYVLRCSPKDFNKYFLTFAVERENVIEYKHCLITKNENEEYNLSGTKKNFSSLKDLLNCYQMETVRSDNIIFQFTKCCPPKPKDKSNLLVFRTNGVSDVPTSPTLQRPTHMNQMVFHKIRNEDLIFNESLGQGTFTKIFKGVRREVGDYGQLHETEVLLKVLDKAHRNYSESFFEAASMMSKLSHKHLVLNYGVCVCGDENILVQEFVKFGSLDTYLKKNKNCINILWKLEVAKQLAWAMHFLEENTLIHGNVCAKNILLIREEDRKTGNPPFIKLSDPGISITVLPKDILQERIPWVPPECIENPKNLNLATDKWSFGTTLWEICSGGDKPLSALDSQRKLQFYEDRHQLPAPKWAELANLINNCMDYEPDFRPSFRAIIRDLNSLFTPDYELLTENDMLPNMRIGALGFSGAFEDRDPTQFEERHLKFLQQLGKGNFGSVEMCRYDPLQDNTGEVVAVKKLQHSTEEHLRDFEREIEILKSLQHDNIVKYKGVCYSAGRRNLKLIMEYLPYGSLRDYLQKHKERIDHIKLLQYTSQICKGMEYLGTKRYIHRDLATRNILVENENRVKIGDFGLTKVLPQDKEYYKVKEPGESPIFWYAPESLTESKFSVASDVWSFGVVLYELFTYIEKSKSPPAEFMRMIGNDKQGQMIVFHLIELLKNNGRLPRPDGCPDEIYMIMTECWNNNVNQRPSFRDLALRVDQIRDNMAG

Row | Sequence | phosphorylation enrichment
34 | ITNLLYHVVGW [GBA_Y412] | 3
35 | APTSGYQEFIH [IL4R_Y575_V579I] | 0.684
36 | SSAETYSRMCL [NBEAL2_Y1835_R1839C] | 0.695
37 | RLLVDYPWTQR [HBB_Y36_V35D] | 0.516
38 | VNLVLYLSIAK [FBXO15_Y496] | 1.28
39 | DNEAIYDICRR [TUBA4A_Y210] | 1.03
40 | DPADRYLTEQC [CDKL5_Y286] | 0.947
41 | FSQQTYFPVSN [ABCD1_Y180_R182P_YF] | 5.51
42 | EQMASYSGHSV [ITGA2B_Y319_F320S] | 0.736
43 | NVKGIYAVADV [GSR_Y371_G374A] | 0.678
44 | LLRLAYLADVF [ZBED5_Y476_I480V] | 0.924
45 | MDNQEYKDAFK [BRDT_Y331_YF] | 1.22
46 | SDIEEYVHRIG [DDX3X_Y525] | 0.791
47 | EQQDMYRLKVL [ABCC6_Y372_N370D] | 0.638
48 | FARNCYVAGQY [G6PD_Y107_S106C] | 0.889
49 | DIRAQYDELAQ [KRT18_Y256_R261Q] | 0.864
50 | IEKLTYIDEWF [CPS1_Y872_K875E] | 1.17

Row | Sequence | phosphorylation enrichment
51 | EFGRRYGFSRQ [CCDC93_Y209_YF] | 0.607
52 | EESSHCSTEKE [ADAR_Y587_Y587C] | 0.8
53 | DLREKYMDCGG [HAP1_Y440] | 0.913
54 | LAIEGYVVVCK [RHO_Y136_R135G] | 1.09
55 | LFSNAYLSDLA [ALDH1A1_Y119_N121S_YF] | 2.06
56 | IRTDAYVRAMT [RPE65_Y89] | 0.481
57 | KLKNAYEECLE [MYH7_Y1488_S1491C] | 0.984
58 | VYYGSYSRPYG [NKAP_Y104] | 2.87
59 | AASTDYNKRGD [PDHA1_Y242_Y243N] | 0.515
60 | RHEASYSSDSE [REPS1_Y116_A113E] | 0.784
61 | KVPAIYGVDTR [CPS1_Y162] | 0.615
62 | RLLRGYDQFAF [HLA-B_Y137_H137Y_YF] | 0.785
63 | KPSLKYVTFGN [GALNTL5_Y404_G401S_YF] | 0.496
64 | MGRVKYGAYIN [GLB1_Y485_N484K] | 0.447
65 | GKTFTYHSVFF [ZNF80_Y200_R201H] | 1.3
66 | PIQLFYTRKNT [GHR_Y86_R89K] | 1.86

What follows are sequences tested against MERTK (UniProt Q12866) in the same assay as above.
MERTK, sequence (Q12866 whole entry, looked up): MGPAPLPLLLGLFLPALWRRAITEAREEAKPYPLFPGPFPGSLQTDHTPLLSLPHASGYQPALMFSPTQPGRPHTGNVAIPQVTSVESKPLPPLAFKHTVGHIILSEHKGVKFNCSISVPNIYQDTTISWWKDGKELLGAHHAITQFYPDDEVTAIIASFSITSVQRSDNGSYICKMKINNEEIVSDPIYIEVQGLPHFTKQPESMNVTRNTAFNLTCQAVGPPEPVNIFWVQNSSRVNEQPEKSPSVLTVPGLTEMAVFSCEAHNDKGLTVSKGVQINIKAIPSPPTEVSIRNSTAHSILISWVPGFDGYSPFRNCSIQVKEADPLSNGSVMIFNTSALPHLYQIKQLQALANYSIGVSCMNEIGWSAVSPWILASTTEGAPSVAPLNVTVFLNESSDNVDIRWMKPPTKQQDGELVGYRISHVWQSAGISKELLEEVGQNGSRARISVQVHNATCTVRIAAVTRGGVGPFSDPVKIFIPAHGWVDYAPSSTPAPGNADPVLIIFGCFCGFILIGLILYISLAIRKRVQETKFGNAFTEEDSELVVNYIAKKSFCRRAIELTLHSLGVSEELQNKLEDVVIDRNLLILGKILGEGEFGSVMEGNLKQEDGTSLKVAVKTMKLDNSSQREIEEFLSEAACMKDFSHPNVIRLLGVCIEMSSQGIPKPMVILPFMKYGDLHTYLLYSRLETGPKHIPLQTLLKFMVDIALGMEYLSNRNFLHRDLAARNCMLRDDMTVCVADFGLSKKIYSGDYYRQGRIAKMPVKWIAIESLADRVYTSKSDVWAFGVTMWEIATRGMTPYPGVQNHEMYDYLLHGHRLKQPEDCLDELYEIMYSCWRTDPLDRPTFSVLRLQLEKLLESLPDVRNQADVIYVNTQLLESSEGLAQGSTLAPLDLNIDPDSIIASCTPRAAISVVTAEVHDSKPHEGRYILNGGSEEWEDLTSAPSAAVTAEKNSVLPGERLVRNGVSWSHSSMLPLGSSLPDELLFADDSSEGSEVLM

Row | Sequence | phosphorylation enrichment
67 | ITNLLYHVVGW [GBA_Y412] | 7.56
68 | APTSGYQEFIH [IL4R_Y575_V579I] | 0.429
69 | SSAETYSRMCL [NBEAL2_Y1835_R1839C] | 0.561
70 | RLLVDYPWTQR [HBB_Y36_V35D] | 0.411
71 | VNLVLYLSIAK [FBXO15_Y496] | 0.572
72 | DNEAIYDICRR [TUBA4A_Y210] | 5.98
73 | DPADRYLTEQC [CDKL5_Y286] | 0.446
74 | FSQQTYFPVSN [ABCD1_Y180_R182P_YF] | 3.42
75 | EQMASYSGHSV [ITGA2B_Y319_F320S] | 0.337
76 | NVKGIYAVADV [GSR_Y371_G374A] | 6.08
77 | LLRLAYLADVF [ZBED5_Y476_I480V] | 0.537
78 | MDNQEYKDAFK [BRDT_Y331_YF] | 0.442
79 | SDIEEYVHRIG [DDX3X_Y525] | 0.384
80 | EQQDMYRLKVL [ABCC6_Y372_N370D] | 0.376
81 | FARNCYVAGQY [G6PD_Y107_S106C] | 0.49
82 | DIRAQYDELAQ [KRT18_Y256_R261Q] | 0.582
83 | IEKLTYIDEWF [CPS1_Y872_K875E] | 0.488

Row | Sequence | phosphorylation enrichment
84 | EFGRRYGFSRQ [CCDC93_Y209_YF] | 0.499
85 | EESSHCSTEKE [ADAR_Y587_Y587C] | 0.502
86 | DLREKYMDCGG [HAP1_Y440] | 0.442
87 | LAIEGYVVVCK [RHO_Y136_R135G] | 0.528
88 | LFSNAYLSDLA [ALDH1A1_Y119_N121S_YF] | 1.81
89 | IRTDAYVRAMT [RPE65_Y89] | 0.402
90 | KLKNAYEECLE [MYH7_Y1488_S1491C] | 0.432
91 | VYYGSYSRPYG [NKAP_Y104] | 6.16
92 | AASTDYNKRGD [PDHA1_Y242_Y243N] | 0.453
93 | RHEASYSSDSE [REPS1_Y116_A113E] | 0.461
94 | KVPAIYGVDTR [CPS1_Y162] | 0.54
95 | RLLRGYDQFAF [HLA-B_Y137_H137Y_YF] | 0.645
96 | KPSLKYVTFGN [GALNTL5_Y404_G401S_YF] | 0.435
97 | MGRVKYGAYIN [GLB1_Y485_N484K] | 0.358
98 | GKTFTYHSVFF [ZNF80_Y200_R201H] | 0.46
99 | PIQLFYTRKNT [GHR_Y86_R89K] | 0.846

The sequences below were run on c-Abl (mouse) in the same assay as above.

Row | Sequence | phosphorylation enrichment
100 | ITNLLYHVVGW [GBA_Y412] | 2.9
101 | APTSGYQEFIH [IL4R_Y575_V579I] | 0.527
102 | SSAETYSRMCL [NBEAL2_Y1835_R1839C] | 0.849
103 | RLLVDYPWTQR [HBB_Y36_V35D] | 0.465
104 | VNLVLYLSIAK [FBXO15_Y496] | 1.25
105 | DNEAIYDICRR [TUBA4A_Y210] | 16.1
106 | DPADRYLTEQC [CDKL5_Y286] | 0.713
107 | FSQQTYFPVSN [ABCD1_Y180_R182P_YF] | 0.723
108 | EQMASYSGHSV [ITGA2B_Y319_F320S] | 0.493
109 | NVKGIYAVADV [GSR_Y371_G374A] | 16.5
110 | LLRLAYLADVF [ZBED5_Y476_I480V] | 0.704
111 | MDNQEYKDAFK [BRDT_Y331_YF] | 1.22
112 | SDIEEYVHRIG [DDX3X_Y525] | 0.953
113 | EQQDMYRLKVL [ABCC6_Y372_N370D] | 0.453
114 | FARNCYVAGQY [G6PD_Y107_S106C] | 0.83
115 | DIRAQYDELAQ [KRT18_Y256_R261Q] | 0.614
116 | IEKLTYIDEWF [CPS1_Y872_K875E] | 0.81

Row | Sequence | phosphorylation enrichment
117 | EFGRRYGFSRQ [CCDC93_Y209_YF] | 1.42
118 | EESSHCSTEKE [ADAR_Y587_Y587C] | 0.559
119 | DLREKYMDCGG [HAP1_Y440] | 0.738
120 | LAIEGYVVVCK [RHO_Y136_R135G] | 0.991
121 | LFSNAYLSDLA [ALDH1A1_Y119_N121S_YF] | 2.14
122 | IRTDAYVRAMT [RPE65_Y89] | 0.522
123 | KLKNAYEECLE [MYH7_Y1488_S1491C] | 0.799
124 | VYYGSYSRPYG [NKAP_Y104] | 8.1
125 | AASTDYNKRGD [PDHA1_Y242_Y243N] | 0.67
126 | RHEASYSSDSE [REPS1_Y116_A113E] | 0.662
127 | KVPAIYGVDTR [CPS1_Y162] | 0.525
128 | RLLRGYDQFAF [HLA-B_Y137_H137Y_YF] | 0.798
129 | KPSLKYVTFGN [GALNTL5_Y404_G401S_YF] | 0.467
130 | MGRVKYGAYIN [GLB1_Y485_N484K] | 0.461
131 | GKTFTYHSVFF [ZNF80_Y200_R201H] | 1
132 | PIQLFYTRKNT [GHR_Y86_R89K] | 0.916
